Four substances from patent US5889153A, “Protein or polypeptide, method for producing the same and intermediate compound therefor” (Hisamitsu Pharmaceutical Co., Inc., priority 1994, dated 1999) can be followed below.

The nature of data set [1]: in-vivo behaviors of modified SOD: SOD concentration in blood after intravenous administration. The note with it: about 5,000 U intravenously; for in-vivo behaviors (SOD concentration in blood): urethane-anesthetized rat or rat with ligated renal artery. Set-up: species or system rat.
Text: About 5,000 U p-nitrophenyl formate-activated polyethyleneglycol-monocholesterolether (compound C)-modified or non-modified SOD were intravenously administered to an urethane-anesthetized rat or a rat of which only the renal artery was ligated after urethane anesthesia. Then, at prescribed intervals of time, venous blood was sampled to measure the SOD concentration in blood at each time point.
The test system of another data set is acute gastric ulcer. As to the kind of experiment: pharmacological effect of modified SOD: water immersion stress ulcerative model. The data set is classed as in vivo. The conditions noted are these: 10,000 U, rat, compared with non-modified SOD. Here is the method:
To a rat, 10,000 U p-nitrophenyl formate-activated polyethyleneglycol-monocholesterolether (compound C)-modified or non-modified SOD were administered. Then, an acute gastric ulcer was caused in accordance with the method for preparing a water immersion stress ulcerative model, and the effect inhibiting generation of ulcer at this point was investigated.

Another data set relates to blood glucose. As to the kind of experiment: pharmacological effect of modified insulin: blood glucose value after intravenous administration. The data set is classed as in vivo. The conditions noted are these: about 0.5 U intravenously, normal rat.
The nature of data set [2]: water-solubility of reactive PEG derivative. It is filed as physicochemical. The note with it: 0.025 mM Na2B4O7.10H2O, pH 9.2, given as the reason for insufficient modification. Here is the method: After dissolving bovine-derived insulin (6.0 mg) in 0.025 mM Na2 B4 O7.10H2 O (pH: 9.2) in an amount of 200 ml, p-nitrophenyl formate-activated polyethyleneglycolmono-cholesterolether (compound A), N-succinimide-activated polyethyleneglycol-monocholesterolether (compound B), p-nitrophenyl formate-activated polyethyleneglycol-mono-cholesterolether (compound C), cyanulchloride-activated polyethyleneglycol-monocholesterolether (compound D), double-type cyanulchloride-activated polyethyleneglycol-monocholesterolether (compound E), and p-nitrophenyl formate-activated polyethyleneglycol-monocholosterolether (compound F) obtained in Example 1 were respectively added in an amount of 2.0 nmol, and the mixtures were stirred at the room temperature for five hours. The resultant mixtures were purified through gel filtration by the use of Sephadex G-75 (made by Pharmacia Company). The target fraction was desalted and concentrated through ultrafiltration (made by Pharmacia Company), thereby obtaining the target aqueous solution (1.8 mg/ml). In the case of p-nitrophenyl formate-activated polyethylene-glycol-monocholesterolether (compoundA), the target modification was insufficient. […] In the case of p-nitrophenyl formate-activated polyethyleneglycol-monocholesterolether (compound F) also, the chemical modification was not sufficient. This is considered to be due to stereo-hindrance.

Text for blood glucose: Then, at prescribed intervals of time, venous blood was sampled to measure the insulin concentration in blood and blood glucose value at each time point.

For the substance “modified SOD: bovine-derived Cu, Zn-SOD modified with p-nitrophenyl formate-activated polyethyleneglycol-monocholesterolether (compound C), Example 3”, in data set [1] (rat), the glomerular filtration result was “exempt from glomerular filtration” and the half-life in blood result is listed as “extended”. For the same substance, the “in-vivo behaviors (SOD concentration in blood)” value in data set [1] was “largely improved”. In the data set with acute gastric ulcer, the “effect inhibiting generation of ulcer” value is recorded as “production of an ulcer is inhibited”.

For the substance insulin [non-modified insulin], in the data set on blood glucose, the “pharmacological effect (blood glucose value)” value is “identical pharmacological effects”.

Take “p-nitrophenyl formate-activated polyethylene-glycolmonocholesterolether [compound A]”: the water-solubility entry in data set [2] is listed as “low water-solubility”.

“non-modified SOD: bovine-derived Cu, Zn-SOD (Superoxide Dismutase), not modified”: the “in-vivo behaviors (SOD concentration in blood)” value in data set [1] is on record as “clearly improved”.
